Read-outs that look alike come from different tables or passages of the source.
Experiments:
[1] = molecular target: T1, Gac (C-terminal domain of GyrA, recombinant) (Borrelia burgdorferi B31) (UniProt O51396); assay: competition
T1 sequence: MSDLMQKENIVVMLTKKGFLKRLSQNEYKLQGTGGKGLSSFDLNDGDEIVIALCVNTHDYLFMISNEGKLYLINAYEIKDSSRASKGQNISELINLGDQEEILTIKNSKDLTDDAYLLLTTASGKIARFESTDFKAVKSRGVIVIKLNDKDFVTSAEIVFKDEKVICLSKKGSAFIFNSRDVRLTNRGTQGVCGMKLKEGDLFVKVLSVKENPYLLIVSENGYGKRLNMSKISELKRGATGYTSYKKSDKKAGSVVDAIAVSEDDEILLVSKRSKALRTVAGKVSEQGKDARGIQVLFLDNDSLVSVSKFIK

[2] = molecular target: T1, Gac (C-terminal domain of GyrA, recombinant) (Borrelia burgdorferi B31); assay: competition; remark: listed apart in the source

B31 ospC operator/promoter unlabeled gave a binding signal (fold reduction of shift) [1] of 2.6.
empty pCR2.1 amplicon was tested, and the binding signal (fold change of shift) [1] was under 1.3.
Work on Ip89 ospC operator/promoter unlabeled yielded a binding signal (fold reduction of shift) [1] of 2 and a binding signal (fold reduction of shift) [2] of over 8.
